B1: MINDI: SEQ ID NO: 2; target Mcl-1 (protein)
chain: ADPKKVLDKAKDQAENRVRELKQVLEELYKEARKLDLTQEMRKKLIERYAAAIIRAIGDINNAIYQAKQEAEKLKKAGLVNSQQLDELLRRLDELQKEASRKANEYGREFELKLEY
B2: Index 21: SEQ ID NO: 113; computational precursor for BbpD04 (protein)
chain: GFDWKKVLDKAKDLAENDVREAKQKLEEFYKKAMKLDLTQEMRRKLMLEWIAAMLMAIGDIFNAIEQGKQEADKLKKLGKVLSQLLDELKRRLEELKEEAALKAHDFGREFELKLLFG
modifications: optionally absent

How the values were obtained:
colon cancer cell lines = assay: Long-term survival assay, colon cancer cell lines; assay type: cell-based, human; details: colon cancer lines
Procedure: Inducible αMCL1 and αBFL1 constructs were generated in a lentiviral vector described in Aubrey et al. (2015). Ligand expression is linked via the T2A peptide to mCherry™ fluorescent reporter protein. […] Viral supernatants were then filtered prior to target cell transduction. […] For infection of MEFs and colon cancer cell lines, equal volume of virus-containing supernatant was added to target cells pre-incubated with 10 ng/μL polybrene, and centrifuged at 2500 rpm for 2 hours at 32° C. Following spin inoculation, cells were then incubated overnight at 37° C. Cells expressing the doxycycline-inducible constructs were then selected by sorting mCherry^+ve cells. MEFs were maintained in DME Kelso medium supplemented with 10% (v/v) FBS, 250 mM L-asparagine and […] 2-mercaptoethanol. Colon cancer cell lines were maintained in DMEM/F-12 supplemented with 10% (v/v) FBS.
MEF and colon cancers were seeded in 6-well tissue culture plates in 2 mL culture media at 150 cells per mL. The next day and every 48 hours following, doxycycline was added at a final concentration of 1 μg/mL to each well, while nothing was added to control wells.

Mcl-1-dependent MEF line = assay: Long-term survival (colony) assay, Mcl-1-dependent MEFs; assay type: cell-based, mouse; details: seven day colony survival, doxycycline-induced expression
Source text: Mouse embryonic fibroblasts were generated from E13-E14.5 embryos derived from CreERT2/Bcl-x^fl/fl/Mcl-I^fl/fl C57BL/6 mice (Kelly et al., 2014) and immortalized (at passage 2-4) with SV40 large T antigen. Retroviral expression constructs in the pMIG vector (Murine Stem Cell Virus-IRES-GFP) expressing each FLAG-tagged pro-survival protein were transiently transfected using LIPOFECTAMINE™ (Invitrogen), into Phoenix ecotropic packaging cells. Filtered virus-containing supernatants were used to infect the MEFs by spin inoculation as previously described (Lee et al., 2008). Cells stably expressing each pro-survival protein were selected by sorting GFP^+ve cells 24 hours after spin inoculation and protein expression verified by Western blotting using an anti-FLAG antibody. Following verification of exogenous pro-survival protein expression, each cell line was treated with 1 μM Tamoxifen (Sigma-Aldrich) to enable deletion of endogenous Mcl-1 and Bcl-xL. Deletion of endogenous Mcl-1 and Bcl-xL was shown by Western blotting using anti-Mcl-1 (Rockland Clone, 600-401-394) and anti-Bcl-xL (BD Transduction Laboratories Clone 44/Bcl-x) antibodies. Cells were maintained in DME Kelso medium supplemented with 10% (v/v) fetal bovine serum, 250 mM L-asparagine and […] 2-mercaptoethanol.
Inducible αMCL1 and αBFL1 constructs were generated in a lentiviral vector described in Aubrey et al. (2015). […]

Mcl-1 = molecular target: T1, Mcl-1 (Homo sapiens, UniProt Q07820); assay: Bio-layer interferometry (BLI), immobilized Mcl-1; assay type: binding; details: BLI titrations
T1 construct: Mcl-1 a.a; made in house; host or cells: E. coli BL21* (DE3)
T1 sequence (Q07820 172-327): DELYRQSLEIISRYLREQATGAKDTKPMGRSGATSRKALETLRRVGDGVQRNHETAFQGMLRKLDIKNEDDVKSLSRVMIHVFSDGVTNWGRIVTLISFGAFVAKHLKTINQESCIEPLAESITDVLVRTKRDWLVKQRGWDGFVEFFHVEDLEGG
Source text: 11-175 (NP_065129.1), Mcl-1 a.a. […] For later BLI analysis, Bcl-B and Bfl-1 were genetically fused to C-terminal maltose-binding-protein with an avi-6his tag for improved solution properties. Codon usage was optimized for E. coli expression. […] The genes for individually-tested designed proteins were assembled from oligos (Hoover and Lubkowski, 2002) and cloned into pET29b (NdeI-XhoI sites) with C-terminal 6his tags for purification from E. coli, or cloned into PETCON (NdeI-XhoI sites; (Fleishman et al., 2011)) for yeast surface expression. Alternative tags were added using PCR methods. Point mutations were made by overlapping PCR (Procko et al., 2013). Error-prone PCR with an average error rate of 1.3 amino acid substitutions per clone used GeneMorph II Random Mutagenesis (Agilent Technologies).
Purified avi-6his-tagged ligands (20 μM) in reaction buffer (250 mM potassium glutamate, 20 mM Tris-Cl [pH 7.5], 50 mM bicine [pH 8.3], 10 mM ATP, 10 mM MgOAc, 100 μM d-biotin) were enzymatically biotinylated with 150 U/μl BirA (Avidity) at room temperature overnight, followed by purification with NiNTA-agarose and SEC. Biotinylated ligands were stored at 4° C. in 150 mM NaCl, 20 mM Tris-Cl (pH 7.5), 1 mM DTT, 0.02% sodium azide.
Data were collected on an Octet RED96 (Forte Bio) and processed using the instrument's integrated software. […] Biosensors were dipped in solutions containing the analyte of interest to measure association, and transferred back to empty binding buffer for monitoring dissociation. Kinetic constants were determined from the mathematical fit of a 1:1 binding model.

[1] = tested on: Bim association with pro-survival homologs in HeLa cells; assay: Bim co-immunoprecipitation in HeLa cells; assay type: cell-based, human
Procedure: Cells were harvested, washed with PBS, and extracted with ice-cold Chaps buffer (40 mM Tris-HCl, pH 7.5, 150 mM NaCl, 1 mM EDTA, 2% CHAPS, and Complete Protease Inhibitors [Roche]) for 20 minutes, on ice. Extracts were spun down at 10,000 g for 10 min and supernatants were removed and used for SDS-PAGE analysis. Expression of proteins of interest was analyzed using antibodies against Bcl-2, Bcl-xL, Mcl-1 (as above), Bfl-1 (ProsSci, Inc.), Bim (BD Biosciences), and tubulin (SigmaAldrich). For immunoprecipitation experiments, 1,000 μg protein lysates were pre-cleared and then incubated with 3 μg Bim antibody for 2 hours at 4° C., followed by addition of Protein A/G Plus agarose beads (Santa Cruz Biotechnology) and overnight incubation with rotation at 4° C. Negative control reactions used normal IgG. Immunoprecipitates were washed four times with lysis buffer and eluted with loading buffer at 95° C., 2 times for 10 min, followed by SDS-PAGE analysis.

BCL2 family proteins = assay: BLI specificity across BCL2 family proteins (next tightest binder versus intended target); design: species or system human; details: fold weaker affinity for next tightest binding BCL2 family protein versus intended target
BHRF1 = BHRF1 (Epstein-Barr virus, UniProt P03182); details: FACS sort for binding signal after 400 nM BHRF1
Sequence of BHRF1 (P03182 1-161): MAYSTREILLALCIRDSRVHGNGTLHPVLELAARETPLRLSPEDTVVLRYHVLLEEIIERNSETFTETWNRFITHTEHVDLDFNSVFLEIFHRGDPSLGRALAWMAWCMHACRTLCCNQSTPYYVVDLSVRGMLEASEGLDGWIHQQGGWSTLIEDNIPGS
Source text: This was reduced to 74 designs (Indexes-01 to 74) after filtering for strong interface binding energy, low monomer folding energy and a low number of buried unsatisfied hydrogen bonding atoms. Barcoded genes were synthesized (Table 3) and the library transformed in to yeast for surface display (6×10^5 transformants). […] The library was sorted by a single round of FACS for cells expressing surface protein (FIG. 1C; lane 1), for the 2% of cells with highest expression (lane 2), and for cells showing binding signal after incubation with 100 nM (lane 3) or 400 nM BHRF1 (lane 4). DNA from the naive and post-sorted populations was harvested and sequenced by Illumina deep sequencing, and the recovery of each designed sequence determined.
Binding of biotinylated protein to the yeast surface is detected with phycoerythrin-conjugated streptavidin (Invitrogen).
Yeast cells were sorted on a BD Influx cytometer operated by Spigot (BD Biosciences) and recovered in SDCAA media at 30° C. overnight. Yeast were lysed with 125 U/ml Zymolase at 37° C. for 5 h, and DNA was harvested (Zymoprep kit from Zymo Research). […] DNA was deep sequenced with a MiSeq™ sequencer (Illumina) and sequences were analyzed with adapted scripts from Enrich (Fowler et al., 2011). […]

Molecule	effect on long-term survival (in words) (colon cancer cell lines)	decrease in survival (Mcl-1-dependent MEF line)	affinity for other BCL2 family members relative to Mcl-1 (Mcl-1)	effect on Bim binding profile ([1]; Bcl-2+ HeLa cells)	effect on Bim binding profile ([1]; wild-type HeLa cells)	Specificity (BCL2 family proteins)	Log2 Enrichment Ratio: 400 nM BHRF1 (BHRF1)
B1	negligible effect	90±11%	over ten thousand-fold weaker affinity	no effect	displacement of Bim from Mcl-1	93,000	
B2							BHRF1 −2.81

— patent US9750814B2, “Polypeptides to inhibit epstein barr viral protein BHRF1 and B cell lymphoma family proteins” (priority 2014, dated 2017)
